# Results as given in US10829528B2, “Therapeutic agents for neurological and psychiatric disorders” (VIB VZW, priority 2016, dated 2020).
# B1: sAPPα: soluble amyloid precursor protein α ectodomain; mouse APP695 18-612aa, Fc tag cleaved (protein)
# chain: LEVPTDGNAGLLAEPQIAMFCGKLNMHMNVQNGKWESDPSGTKTCIGTKEGILQYCQEVYPELQITNVVEANQPVTIQNWCKRGRKQCKTHTHIVIPYRCLVGEFVSDALLVPDKCKFLHQERMDVCETHLHWHTVAKETCSEKSTNLHDYGMLLPCGIDKFRGVEFVCCPLAEESDSVDSADAEEDDSDVWWGGADTDYADGGEDKVVEVAEEEEVADVEEEEADDDEDVEDGDEVEEEAEEPYEEATERTTSTATTTTTTTESVEEVVRVPTTAASTPDAVDKYLETPGDENEHAHFQKAKERLEAKHRERMSQVMREWEEAERQAKNLPKADKKAVIQHFQEKVESLEQEAANERQQLVETHMARVEAMLNDRRRLALENYITALQAVPPRPHHVFNMLKKYVRAEQKDRQHTLKHFEHVRMVDPKKAAQIRSQVMTHLRVIYERMNQSLSLLYNVPAVAEEIQDEVDELLQKEQNYSDDVLANMISEPRISYGNDALMPSLTETKTTVELLPVNGEFSLDDLQPWHPFGVDSVPANTENEVEPVDARPAADRGLTTRPGSGLTNIKTEEISEVKMDAEFGHDSGFEVRHQK
# Tested on: primary hippocampal neurons
# Assay: mEPSCs & mIPSCs in cultured primary hippocampal neurons (wild type)
# Type: cell-based, mouse
# Protocol: mEPSCs & mIPSCs are measured in cultured primary hippocampal neurons at baseline and following acute application of agonists. Excitatory terminals selectively express the sushi domain-containing GABABR1a isoform (ref18), where it functions to inhibit neurotransmitter release (ref 24). Acute exposure of primary hippocampal neurons from wild type mice to 30μM baclofen, a GABABR agonist, or 250 nM sAPPα (Fc cleaved) reduces the frequency of miniature excitatory postsynaptic currents (mEPSCs) by 68% (FIG. 8 a,b) and 39% (FIG. 8 c,d), respectively, with no effect on mEPSC amplitude (FIG. 8e). […] Acute application of 30 μM baclofen or 250 nM purified sAPPα reduces the frequency of miniature inhibitory postsynaptic currents (mIPSCs) by 63% (FIG. 8a, 9a) and 44% (FIG. 8c, 9b), respectively, which is blocked by pretreatment with the GABABR antagonist CGP55845 (CGP, 5 μM) (FIG. 8f, 9d). Application of sAPPα causes a minor (14%) reduction on mIPSC amplitude (FIG. 8e, 9c). […] Baclofen is known to reduce the frequencies of mEPSCs and mIPSCs, which we have also confirmed. […] To confirm that the agonist is acting through GABABR1a, the agonist is tested in cultures with shRNA mediated knockdown of GABABR1a or antisense oligonucleotides mediated exon skipping of the exon encoding the Sushi domain 1 of GABABR1a. Antagonists are tested by treatment in combination with the agonist, Baclofen. […] As an antagonist we test an antibody against the sushi domain sequence (SEQ ID No: 5): […] SWTDMDTPSRCV. An antibody specifically binding to this domain which acts as an antagonist increases the frequencies of mEPSCs and mIPSCs. sAPPα also reduces mEPSC and mIPSC frequency in App/Aplp1 dKO cultures (FIG. 8j, 9f), excluding the possibility that sAPPα interferes with a complex of full-length APP and GABABR1 to exert its effect on GABABR signaling.
# Hippocampal neurons were cultured from E18 C57/B16 wild type mice or APP/APLP1 dKO mice (provided by Ulrike Muller46) and plated on poly-D-lysine (Millipore), and laminin (Invitrogen) coated coverslips (Nalge Nunc International). Neurons were maintained in Neurobasal medium (Invitrogen) supplemented with B27, glucose, glutamax, penicillin/streptomycin (Invitrogen) and 25 μM β-mercaptoethanol.
# Single neurons from wild type or APP/APLP1 null mutant embryos (E18) were recorded within the large neuronal network at DIV 12-15. The intracellular whole-cell pipette medium contained (in mM): 136 KCl, 18 HEPES, 4 Na-ATP, 4.6 MgCl2, 15 Creatine Phosphate, 1 EGTA and 50 U/ml Phospocreatine Kinase (300 mOsm, pH 7.30). Regular external solution contained 2 mM/2 mM Ca2+/Mg2+(in mM: 140 NaCl, 2.4 KCl, 2 CaCl2), 2 MgCl2, 10 HEPES, 14 Glucose (300 mOsm, pH 7.30)) and TTX (1 μM). Pharmacological reagents (30 μM baclofen, 5 μM CGP), sAPLP1, full length sAPP and sAPP derived peptides (250 nM each) were bath applied (dissolved in external medium described above) using a separate gravity driven application inlet. Recordings were done in whole cell voltage clamp configuration at −70 mV with a double EPC-10 amplifier (HEKA Elektronik) under control of Patchmaster v2×32 software (HEKA Elektronik). Currents were low-pass filtered at 3 kHz and stored at 20 kHz. Patch pipettes were pulled from borosilicate glass using a multi-step puller (P-1000; Sutter Instruments). Pipette resistance ranged from 3 to 5 MΩ and was compensated to 75-80%. Only cells with series resistances <15 MΩ were included in analysis. All recordings were done at room temperature. Spontaneous events were detected using Mini Analysis program (Synaptosoft). mEPSCs and mIPSCs were separated on the basis of their distinct decay kinetics, using a threshold of 5 ms47. Baseline was determined from an average of 60 sec of recordings prior to protein or drug treatment. Effect of treatment was determined from an average of 30 sec recordings after 140 sec of protein or drug treatment.
molecule,measurement,setting,value
B1,reduction of mIPSC amplitude,250 nM sAPPα,14%
same,effect on mEPSC amplitude,"250 nM, acute exposure",no effect
same,reduction of mIPSC frequency,"acute application, 30 μM baclofen, 250 nM proteins",44%
same,reduction of mEPSC frequency,"acute exposure, 30 μM baclofen or 250 nM sAPPα (Fc cleaved), wild type mice",39%
